T1: DnaEBs DNA polymerase (Bacillus subtilis DnaE) (Bacillus subtilis, UniProt O34623 1-1115)
T1 sequence (looked up): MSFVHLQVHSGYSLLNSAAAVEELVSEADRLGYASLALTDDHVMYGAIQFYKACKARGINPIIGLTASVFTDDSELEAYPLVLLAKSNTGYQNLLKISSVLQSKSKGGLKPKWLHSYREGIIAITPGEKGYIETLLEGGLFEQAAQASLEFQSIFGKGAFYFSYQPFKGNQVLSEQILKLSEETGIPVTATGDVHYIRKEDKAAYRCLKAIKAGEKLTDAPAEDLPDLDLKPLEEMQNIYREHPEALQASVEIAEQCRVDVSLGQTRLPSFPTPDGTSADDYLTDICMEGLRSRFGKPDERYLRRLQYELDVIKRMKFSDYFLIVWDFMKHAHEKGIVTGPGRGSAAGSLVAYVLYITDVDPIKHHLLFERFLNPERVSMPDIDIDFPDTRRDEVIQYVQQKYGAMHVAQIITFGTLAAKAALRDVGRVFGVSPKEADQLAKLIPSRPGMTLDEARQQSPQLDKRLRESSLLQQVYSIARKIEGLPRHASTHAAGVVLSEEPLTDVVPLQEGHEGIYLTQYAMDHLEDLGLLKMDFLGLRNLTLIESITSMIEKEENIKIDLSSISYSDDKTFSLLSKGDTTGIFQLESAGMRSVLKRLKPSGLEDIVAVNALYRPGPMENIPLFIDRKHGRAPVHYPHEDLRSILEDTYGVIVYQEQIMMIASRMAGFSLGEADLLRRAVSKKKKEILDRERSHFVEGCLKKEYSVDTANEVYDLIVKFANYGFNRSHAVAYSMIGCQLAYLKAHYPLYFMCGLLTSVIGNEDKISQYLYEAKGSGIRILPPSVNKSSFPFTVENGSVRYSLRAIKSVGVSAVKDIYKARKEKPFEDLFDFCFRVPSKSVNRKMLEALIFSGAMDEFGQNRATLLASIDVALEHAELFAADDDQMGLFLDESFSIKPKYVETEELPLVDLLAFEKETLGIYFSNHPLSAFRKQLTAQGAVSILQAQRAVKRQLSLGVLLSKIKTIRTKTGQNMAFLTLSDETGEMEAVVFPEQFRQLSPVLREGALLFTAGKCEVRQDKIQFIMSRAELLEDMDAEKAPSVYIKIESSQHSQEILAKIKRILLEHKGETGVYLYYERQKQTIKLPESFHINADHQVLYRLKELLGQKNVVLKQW

B1: DnaG primase (Bacillus subtilis) (enzyme, UniProt P05096 1-603, looked up)
chain: MGNRIPDEIVDQVQKSADIVEVIGDYVQLKKQGRNYFGLCPFHGESTPSFSVSPDKQIFHCFGCGAGGNVFSFLRQMEGYSFAESVSHLADKYQIDFPDDITVHSGARPESSGEQKMAEAHELLKKFYHHLLINTKEGQEALDYLLSRGFTKELINEFQIGYALDSWDFITKFLVKRGFSEAQMEKAGLLIRREDGSGYFDRFRNRVMFPIHDHHGAVVAFSGRALGSQQPKYMNSPETPLFHKSKLLYNFYKARLHIRKQERAVLFEGFADVISAVSSDVKESIATMGTSLTDDHVKILRRNVEEIILCYDSDKAGYEATLKASELLQKKGCKVRVAMIPDGLDPDDYIKKFGGEKFKNDIIDASVTVMAFKMQYFRKGKNLSDEGDRLAYIKDVLKEISTLSGSLEQEVYVKQLASEFSLSQESLTEQLSVFSKQNKPADNSGETKTRRAHLTTKARQKRLRPAYENAERLLLAHMLRDRSVIKKVIDRVGFQFNIDEHRALAAYLYAFYEEGAELTPQHLMARVTDDHISQLLSDILMLQVNQELSEAELSDYVKKVLNQRNWSMIKEKEAERAEAERQKDFLRAASLAQEIVTLNRSLK
B2: DnaC6-DnaI6 complex (co-purified DnaC helicase and DnaI loader) (complex, Bacillus subtilis)
chain 1: MTDLLNDRLPPQNIEAEQAVLGAIFLQPSALTLASEVLIPDDFYRMSHQKIYNAMLVLGDRGEPVDLVTVTSELANTDLLEEVGGISYLTDIANSVPTAANIEYYAKIVEEKSILRRLIRTATTIAQDGYTREDEVEDLLSEAEKTIMEVAQRKNTSAFQNIKDVLVQTYDNIEQLHNRKGDITGIPTGFTELDRMTAGFQRNDLIIVAARPSVGKTAFALNIAQNVATKTDESVAIFSLEMGAEQLVMRMLCAEGNINAQNLRTGNLTEEDWGKLTMAMGSLSNSGIYIDDTPGIRVSEIRAKCRRLKQESGLGMILIDYLQLIQGSGRSKDNRQQEVSEISRELKSIARELQVPVIALSQLSRGVEQRQDKRPMMSDIRESGSIEQDADIVAFLYRDDYYDKETENKNIIEIIIAKQRNGPVGTVSLAFVKEYNKFVNLERRFDDAGVPPGA
chain 2: MEPIGRSLQGVTGRPDFQKRLEQMKEKVMKDQDVQAFLKENEEVIDQKMIEKSLNKLYEYIEQSKNCSYCSEDENCNNLLEGYHPKLVVNGRSIDIEYYECPVKRKLDQQKKQQSLMKSMYIQQDLLGATFQQVDISDPSRLAMFQHVTDFLKSYNETGKGKGLYLYGKFGVGKTFMLAAIANELAEKEYSSMIVYVPEFVRELKNSLQDQTLEEKLNMVKTTPVLMLDDIGAESMTSWVRDEVIGTVLQHRMSQQLPTFFSSNFSPDELKHHFTYSQRGEKEEVKAARLMERILYLAAPIRLDGENRRHP

Columns and labels:
[1] = molecular target: T1, DnaEBs DNA polymerase (Bacillus …); assay: SPR
[2] = molecular target: B2; assay: SPR
[3] = molecular target: T1, DnaEBs DNA polymerase (Bacillus …); assay: SEC

Binder | Ka [1] [M⁻¹] | Kd [1] [nM] | koff [1] [s⁻¹] | kon [1] [M⁻¹ s⁻¹] | Ka [2] [M⁻¹] | Kd [2] [nM] | koff [2] [s⁻¹] | kon [2] [M⁻¹ s⁻¹] | binding result [3]
B1 | 1.33e+08 | 752 | 0.00181 | 2400 | 3.77e+06 | 295 | 0.000287 | 1080 | –
B2 | – | – | – | – | – | – | – | – | binds
